Laboratory results reported in US20110318339A1 (FABRUS, published 2011).
Substitutions are numbered along the chain they refer to. Names and notes keep the numbering of the source. Each block holds one binder with its values, some of them ahead of it.

Columns and labels:
[1] = biological target: T1, recombinant human DLL4 (Cat# 1506-D4/CF, R&D Systems) (human, UniProt Q9NR61 27-529); experiment: ELISA, DLL4 coated, Fab 20 nM
T1 construct: Bought protein; also called hDLL4; rHuman DLL4
Protocol: (§1) The plate was blocked by adding 1% BSA in Tris-buffered Saline Tween (TBST) and incubating for 1 hour at room temperature followed by washing 2 times with 150 μl TBST. A Fab antibody was serially diluted in 1% BSA in PBS. A 50 μl aliquot of each serial dilution was added, in triplicate, to each well and the plate was incubated for 1 hour at room temperature followed by washing 2 times with TBST. 50 μl of either goat anti-human kappa HRP conjugated secondary antibody (Cat # A7164-1 mL, Sigma-Aldrich) or goat anti-human lambda HRP conjugated secondary antibody (Cat # L1645-1 ml, Sigma-Aldrich), diluted 1:1000 in 1% BSA in PBS, was added to each well and the plate was incubated for 30 minutes at room temperature followed by washing 3 times with 200 μl TBST. Finally, 50 μl TMB one-component reagent (Cat # TMBW-1000-01, BioFax) was added and allowed to develop for 2 minutes at room temperature. The reaction was immediately halted by the addition of 50 μl 0.5M H₂SO₄ and the absorbance at 450 nm was measured using an ELISA plate reader.

[2] = biological target: T1, recombinant human DLL4 (Cat# …); experiment: ELISA, DLL4 coated, Fab 0.74 nM
Protocol: as §1

[3] = biological target: T1, recombinant human DLL4 (Cat# …); experiment: ELISA, DLL4 coated, Fab 2.22 nM
Protocol: as §1

[4] = biological target: T1, recombinant human DLL4 (Cat# …); experiment: ELISA, DLL4 coated, Fab 6.67 nM
Protocol: as §1

[5] = biological target: T1, recombinant human DLL4 (Cat# …); experiment: SPR (ProteOn), hDLL4 amine-coupled on chip
Protocol: In this example, the binding affinities of selected anti-DLL4 Fabs to recombinant human DLL4 (hDLL4, Cat# 1506-D4/CF, R&D Systems) were analyzed using Surface Plasmon Resonance (SPR) (Biosensor Tools, Salt Lake City, Utah). The Fabs analyzed include germline-derived antibodies and germline-modified DLL4 antibodies. Recombinant hDLL4 was immobilized on a SPR chip using amine coupling at three different surface densities. The Fabs were serially diluted 3-fold, with an initial concentration of 1 μM. Binding studies were run on a ProteOn system using a GLM sensor chip in 10 mM HEPES, pH 7.4, 150 mM NaCl, 0.01% Tween-20, and 0.1 mg/ml BSA at 25° C. The response data from each surface was globally fit to determine the binding constants.

[6] = biological target: T2, Recombinant Human DLL4 (Cat# 1506-D4/CF, R&D Systems) (human, UniProt Q9NR61 27-529); experiment: ELISA, DLL4 coated
T2 construct: Bought protein; also called rHuman DLL4; hDLL4

B3: Fab VH1-46_IGHD6-6*01_IGHJ1*01 S102A/S103P/S104F/H111F N52L/S54T/G56H & L6_IGKJ1*01 S28N/S30D/S31H (Fab, V domains shown)
VH: QVQLVQSGAEVKKPGASVKVSCKASGYTFTSYYMHWVRQAPGQGLEWMGIILPTGHSTSYAQKFQGRVTMTRDTSTSTVYMELSSLRSEDTAVYYCAREEYAPFSAEYFQFWGQGTLVTVSS
VL: EIVLTQSPATLSLSPGERATLSCRASQNVDHYLAWYQQKPGQAPRLLIYDASNRATGIPARFSGSGSGTDFTLTISSLEPEDFAVYYCQQRSNWPPWTFGQGTKVEIKR
notes: Fab made in E. coli: VH on CH1 with His6 and Flag tags (Plasmid A), VL on kappa CL (Plasmid C); also called H: APFF LTH & L: NDH
- ELISA absorbance at 450 nm [1]: 0.863 A450
- ELISA absorbance at 450 nm [2]: 0.27 A450
- ELISA absorbance at 450 nm [3]: 0.463 A450
- ELISA absorbance at 450 nm [4]: 0.739 A450

B4: Fab VH1-46_IGHD6-6*01_IGHJ1*01 S102A/S103P/S104F/H111F I51A/N52L/S54T/G56H & L6_IGKJ1*01 S28N/S30D/S31H (Fab, V domains shown)
VH: B3 VH with I51A
VL: B3 VL
notes: Fab made in E. coli: VH on CH1 with His6 and Flag tags (Plasmid A), VL on kappa CL (Plasmid C); also called H: APFF ALTH & L: NDH
- ELISA absorbance at 450 nm [1]: 0.391 A450
- ELISA absorbance at 450 nm [2]: 0.024 A450
- ELISA absorbance at 450 nm [3]: 0.069 A450
- ELISA absorbance at 450 nm [4]: 0.232 A450

B7: Fab VH1-46_IGHD6-6*01_IGHJ1*01 S102A/S103P/S104F/H111F N52L/S54T/G56H & L6_IGKJ1*01 S28N/S30D/S31H S52L/A55S (Fab, V domains shown)
VH: B3 VH
VL: B3 VL with S52L, A55S
notes: Fab made in E. coli: VH on CH1 with His6 and Flag tags (Plasmid A), VL on kappa CL (Plasmid C); also called H: APFF LTH & L: NDH LS
- ELISA absorbance at 450 nm [1]: 1.05 A450
- ELISA absorbance at 450 nm [2]: 0.398 A450
- ELISA absorbance at 450 nm [3]: 0.557 A450
- ELISA absorbance at 450 nm [4]: 0.916 A450

B9: Fab H:APFF G56A & L:NDH (Fab, V domains shown)
VH: B3 VH with L52N, T54S, H56A
VL: B3 VL
notes: Fab, kappa light chain
- fold greater affinity against H:APFF & L:wt [6]: 8 fold

Further lines, results first:

- ELISA absorbance at 450 nm [1]: 1.06 A450
- ELISA absorbance at 450 nm [2]: 0.397 A450
- ELISA absorbance at 450 nm [3]: 0.755 A450
- ELISA absorbance at 450 nm [4]: 0.916 A450
B1: Fab VH1-46_IGHD6-6*01_IGHJ1*01 S102A/S103P/S104F/H111F I51V/N52L/S54T/G56H & L6_IGKJ1*01 S28N/S30D/S31H S52L/A55G (Fab, V domains shown)
VH: B3 VH with I51V
VL: B3 VL with S52L, A55G
notes: Fab made in E. coli: VH on CH1 with His6 and Flag tags (Plasmid A), VL on kappa CL (Plasmid C); also called H: APFF VLTH & L: NDH LG

- ELISA absorbance at 450 nm [1]: 0.979 A450
- ELISA absorbance at 450 nm [2]: 0.288 A450
- ELISA absorbance at 450 nm [3]: 0.608 A450
- ELISA absorbance at 450 nm [4]: 0.776 A450
- Kd [5]: 2.7 nM
- koff [5]: 0.00113 s⁻¹
- kon [5]: 430000 M⁻¹ s⁻¹
B2: Fab VH1-46_IGHD6-6*01_IGHJ1*01 S102A/S103P/S104F/H111F I51V/N52L/S54T/G56H & L6_IGKJ1*01 S28N/S30D/S31H (Fab, V domains shown)
VH: B3 VH with I51V
VL: B3 VL
notes: Fab made in E. coli: VH on CH1 with His6 and Flag tags (Plasmid A), VL on kappa CL (Plasmid C); also called H: APFF VLTH & L: NDH

- fold increased binding affinity against the antibody mutants with heavy chain H:APFF ALTH [6]: ~10 fold
B5: Fab H:APFF LTH & L:NDH LG (Fab, V domains shown)
VH: B3 VH
VL: B3 VL with S52L, A55G
notes: Fab, kappa light chain

- ELISA absorbance at 450 nm [1]: 1.01 A450
- ELISA absorbance at 450 nm [2]: 0.368 A450
- ELISA absorbance at 450 nm [3]: 0.594 A450
- ELISA absorbance at 450 nm [4]: 0.88 A450
B6: Fab VH1-46_IGHD6-6*01_IGHJ1*01 S102A/S103P/S104F/H111F N52L/S54T/G56H & L6_IGKJ1*01 S28N/S30D/S31H S52L/A55G (Fab, V domains shown)
VH: B3 VH
VL: B3 VL with S52L, A55G
notes: Fab made in E. coli: VH on CH1 with His6 and Flag tags (Plasmid A), VL on kappa CL (Plasmid C); also called H: APFF LTH & L: NDH LG

- fold increased binding affinity against the antibody mutants with heavy chain H:APFF ALTH [6]: ~10 fold
B8: Fab H:APFF LTH & L:NDH (Fab, V domains shown)
VH: B3 VH
VL: B3 VL
notes: Fab, kappa light chain
